Drawing on publication PMC7498053, this text covers percent of PIC particle images with extra density for 1 substance.

The target of this test is RNA polymerase II (Pol II) immunopurified from HeLa cell nuclear extracts (human (endogenous in HeLa)) (UniProt P24928). The experiment in a line: negative stain electron microscopy; minimal PIC (DNA/TBP/TFIIA/TFIIB/Pol II/TFIIF) assembled sequentially on biotinylated promoter DNA, GST-ORF24-NTD added last; purified on streptavidin beads, eluted with EcoRI, cross-linked with 0.05% glutaraldehyde; 2D and 3D classification and difference maps, ~20 A.

Take “GST-ORF24-NTD (KSHV ORF24 residues 1-201 with an N-terminal GST tag) (domain or fragment)”: the percent of PIC particle images with extra density amounted to 25%.
